# Source: the Human Domainome abundance scans (Beltran et al. 2025)
# ± gives the uncertainty stated by the source.
# B1: Myocardin, residues 363 to 406; numbered along this chain, Q8IZQ8 (parent)
# chain: KPGPLPPNLDDLKVSELRQQLRIRGLPVSGTKTALMDRLRPFQD
# Variants of: B1
# Test: abundance fitness (aPCA) (normalised: wild type 0, dead -1); higher = more abundant; growth selection in yeast, the domain comes from the species named
# Conditions: Homo sapiens
row,Variant,abundance fitness
1,KPGPLPPNLDDLKVSELRQQLRIRGLPVSGTKTALMDYLRPFQD,-0.519 ± 0.12
2,KPGPLPPNLDDLKVSELRQQLRIRGLPVSGTKTALMDFLRPFQD,-0.907 ± 0.18
3,KPGPLPPNLDDLKVSELRQQLRIRGLPVSGTKTALMDLLRPFQD,-0.671 ± 0.088
4,KPGPLPPNLDDLKVSELRQQLRIRGLPVSGTKTALMDGLRPFQD,-0.469 ± 0.071
5,KPGPLPPNLDDLKVSELRQQLRIRGLPVSGTKTALMDHLRPFQD,-1.2 ± 0.26
6,KPGPLPPNLDDLKVSELRQQLRIRGLPVSGTKTALMDKLRPFQD,-0.39 ± 0.094
7,KPGPLPPNLDDLKVSELRQQLRIRGLPVSGTKTALMDALRPFQD,-0.592 ± 0.13
8,KPGPLPPNLDDLKVSELRQQLRIRGLPVSGTKTALMDTLRPFQD,-0.316 ± 0.16
9,KPGPLPPNLDDLKVSELRQQLRIRGLPVSGTKTALMDVLRPFQD,-0.735 ± 0.082
10,KPGPLPPNLDDLKVSELRQQLRIRGLPVSGTKTALMDELRPFQD,-0.451 ± 0.086
11,KPGPLPPNLDDLKVSELRQQLRIRGLPVSGTKTALMDCLRPFQD,-0.929 ± 0.18
12,KPGPLPPNLDDLKVSELRQQLRIRGLPVSGTKTALMDNLRPFQD,-0.765 ± 0.2
13,KPGPLPPNLDDLKVSELRQQLRIRGLPVSGTKTALMDPLRPFQD,-0.219 ± 0.13
14,KPGPLPPNLDDLKVSELRQQLRIRGLPVSGTKTALMDWLRPFQD,-1.02 ± 0.13
15,KPGPLPPNLDDLKVSELRQQLRIRGLPVSGTKTALMDMLRPFQD,-0.445 ± 0.11
16,KPGPLPPNLDDLKVSELRQQLRIRGLPVSGTKTALMDSLRPFQD,-0.479 ± 0.082
17,KPGPLPPNLDDLKVSELRQQLRIRGLPVSGTKTALMDDLRPFQD,-0.795 ± 0.19
18,KPGPLPPNLDDLKVSELRQQLRIRGLPVSGTKTALQDRLRPFQD,-0.398 ± 0.16
19,KPGPLPPNLDDLKVSELRQQLRIRGLPVSGTKTALSDRLRPFQD,-0.64 ± 0.12
20,KPGPLPPNLDDLKVSELRQQLRIRGLPVSGTKTALGDRLRPFQD,-0.668 ± 0.074
21,KPGPLPPNLDDLKVSELRQQLRIRGLPVSGTKTALPDRLRPFQD,-0.419 ± 0.098
22,KPGPLPPNLDDLKVSELRQQLRIRGLPVSGTKTALVDRLRPFQD,-0.183 ± 0.075
23,KPGPLPPNLDDLKVSELRQQLRIRGLPVSGTKTALCDRLRPFQD,-0.454 ± 0.16
24,KPGPLPPNLDDLKVSELRQQLRIRGLPVSGTKTALRDRLRPFQD,-0.216 ± 0.066

row,Variant,abundance fitness
1,KPGPLPPNLDDLKVSELRQQLRIRGLPVSGTKTALWDRLRPFQD,-0.935 ± 0.089
2,KPGPLPPNLDDLKVSELRQQLRIRGLPVSGTKTALEDRLRPFQD,-0.463 ± 0.12
3,KPGPLPPNLDDLKVSELRQQLRIRGLPVSGTKTALIDRLRPFQD,-0.125 ± 0.16
4,KPGPLPPNLDDLKVSELRQQLRIRGLPVSGTKTALDDRLRPFQD,-0.505 ± 0.19
5,KPGPLPPNLDDLKVSELRQQLRIRGLPVSGTKTALLDRLRPFQD,-0.449 ± 0.098
6,KPGPLPPNLDDLKVSELRQQLRIRGLPVSGTKTALKDRLRPFQD,-0.083 ± 0.2
7,KPGPLPPNLDDLKVSELRQQLRIRGLPVSGTKTALTDRLRPFQD,-0.27 ± 0.094
8,KPGPLPPNLDDLKVSELRQQLRIRGLPVSGTKTALADRLRPFQD,-0.255 ± 0.066
9,KPGPLPPNLDDLKVSELRQQLRIRGLPVSGTKTALMDRFRPFQD,-0.755 ± 0.35
10,KPGPLPPNLDDLKVSELRQQLRIRGLPVSGTKTALMDRHRPFQD,-0.611 ± 0.17
11,KPGPLPPNLDDLKVSELRQQLRIRGLPVSGTKTALMDRCRPFQD,-0.785 ± 0.27
12,KPGPLPPNLDDLKVSELRQQLRIRGLPVSGTKTALMDRARPFQD,-0.641 ± 0.099
13,KPGPLPPNLDDLKVSELRQQLRIRGLPVSGTKTALMDRERPFQD,-0.562 ± 0.1
14,KPGPLPPNLDDLKVSELRQQLRIRGLPVSGTKTALMDRGRPFQD,-0.528 ± 0.1
15,KPGPLPPNLDDLKVSELRQQLRIRGLPVSGTKTALMDRDRPFQD,-0.283 ± 0.16
16,KPGPLPPNLDDLKVSELRQQLRIRGLPVSGTKTAIMDRLRPFQD,0.092 ± 0.26
17,KPGPLPPNLDDLKVSELRQQLRIRGLPVSGTKTAKMDRLRPFQD,-0.469 ± 0.093
18,KPGPLPPNLDDLKVSELRQQLRIRGLPVSGTKTAQMDRLRPFQD,-0.226 ± 0.1
19,KPGPLPPNLDDLKVSELRQQLRIRGLPVSGTKTAPMDRLRPFQD,-0.578 ± 0.079
20,KPGPLPPNLDDLKVSELRQQLRIRGLPVSGTKTADMDRLRPFQD,-0.459 ± 0.15
21,KPGPLPPNLDDLKVSELRQQLRIRGLPVSGTKTAWMDRLRPFQD,-0.561 ± 0.11
22,KPGPLPPNLDDLKVSELRQQLRIRGLPVSGTKTAVMDRLRPFQD,-0.459 ± 0.081
23,KPGPLPPNLDDLKVSELRQQLRIRGLPVSGTKTATMDRLRPFQD,-0.551 ± 0.097
24,KPGPLPPNLDDLKVSELRQQLRIRGLPVSGTKTASMDRLRPFQD,-0.418 ± 0.1

row,Variant,abundance fitness
1,KPGPLPPNLDDLKVSELRQQLRIRGLPVSGTKTAGMDRLRPFQD,-0.489 ± 0.068
2,KPGPLPPNLDDLKVSELRQQLRIRGLPVSGTKTARMDRLRPFQD,-0.799 ± 0.077
3,KPGPLPPNLDDLKVSELRQQLRIRGLPVSGTKTAEMDRLRPFQD,-0.293 ± 0.076
4,KPGPLPPNLDDLKVSELRQQLRIRGLPVSGTKTAHMDRLRPFQD,-0.943 ± 0.25
5,KPGPLPPNLDDLKVSELRQQLRIRGLPVSGTKTANMDRLRPFQD,-0.613 ± 0.17
6,KPGPLPPNLDDLKVSELRQQLRIRGLPVSGTKTACMDRLRPFQD,-0.184 ± 0.2
7,KPGPLPPNLDDLKVSELRQQLRIRGLPVSGTKTAMMDRLRPFQD,0.064 ± 0.093
8,KPGPLPPNLDDLKVSELRQQLRIRGLPVSGTKTLLMDRLRPFQD,-0.721 ± 0.13
9,KPGPLPPNLDDLKVSELRQQLRIRGLPVSGTKTPLMDRLRPFQD,-0.825 ± 0.22
10,KPGPLPPNLDDLKVSELRQQLRIRGLPVSGTKTGLMDRLRPFQD,-0.556 ± 0.075
11,KPGPLPPNLDDLKVSELRQQLRIRGLPVSGTKTRLMDRLRPFQD,-0.642 ± 0.073
12,KPGPLPPNLDDLKVSELRQQLRIRGLPVSGTKTDLMDRLRPFQD,0.137 ± 0.077
13,KPGPLPPNLDDLKVSELRQQLRIRGLPVSGTKTSLMDRLRPFQD,-0.223 ± 0.085
14,KPGPLPPNLDDLKVSELRQQLRIRGLPVSGTKTCLMDRLRPFQD,-0.467 ± 0.1
15,KPGPLPPNLDDLKVSELRQQLRIRGLPVSGTKTTLMDRLRPFQD,-0.076 ± 0.12
16,KPGPLPPNLDDLKVSELRQQLRIRGLPVSGTKTVLMDRLRPFQD,0.026 ± 0.084
17,KPGPLPPNLDDLKVSELRQQLRIRGLPVSGTKTFLMDRLRPFQD,-0.909 ± 0.22
18,KPGPLPPNLDDLKVSELRQQLRIRGLPVSGTKTKLMDRLRPFQD,-0.4 ± 0.11
19,KPGPLPPNLDDLKVSELRQQLRIRGLPVSGTKTMLMDRLRPFQD,-0.262 ± 0.18
20,KPGPLPPNLDDLKVSELRQQLRIRGLPVSGTKTELMDRLRPFQD,0.011 ± 0.066
21,KPGPLPPNLDDLKVSELRQQLRIRGLPVSGTKTQLMDRLRPFQD,-0.601 ± 0.14
22,KPGPLPPNLDDLKVSELRQQLRIRGLPVSGTKTWLMDRLRPFQD,-1.14 ± 0.28
23,KPGPLPPNLDDLKVSELRQQLRIRGLPVSGTKTALMLRLRPFQD,-0.51 ± 0.079
24,KPGPLPPNLDDLKVSELRQQLRIRGLPVSGTKTALMIRLRPFQD,-0.594 ± 0.16

row,Variant,abundance fitness
1,KPGPLPPNLDDLKVSELRQQLRIRGLPVSGTKTALMSRLRPFQD,-0.892 ± 0.11
2,KPGPLPPNLDDLKVSELRQQLRIRGLPVSGTKTALMYRLRPFQD,-0.271 ± 0.22
3,KPGPLPPNLDDLKVSELRQQLRIRGLPVSGTKTALMMRLRPFQD,-0.264 ± 0.44
4,KPGPLPPNLDDLKVSELRQQLRIRGLPVSGTKTALMTRLRPFQD,-0.452 ± 0.085
5,KPGPLPPNLDDLKVSELRQQLRIRGLPVSGTKTALMGRLRPFQD,-0.404 ± 0.059
6,KPGPLPPNLDDLKVSELRQQLRIRGLPVSGTKTALMARLRPFQD,-0.265 ± 0.062
7,KPGPLPPNLDDLKVSELRQQLRIRGLPVSGTKTALMKRLRPFQD,-0.245 ± 0.11
8,KPGPLPPNLDDLKVSELRQQLRIRGLPVSGTKTALMFRLRPFQD,-1.21 ± 0.22
9,KPGPLPPNLDDLKVSELRQQLRIRGLPVSGTKTALMVRLRPFQD,-0.632 ± 0.081
10,KPGPLPPNLDDLKVSELRQQLRIRGLPVSGTKTALMWRLRPFQD,-0.829 ± 0.1
11,KPGPLPPNLDDLKVSELRQQLRIRGLPVSGTKTALMERLRPFQD,0.246 ± 0.076
12,KPGPLPPNLDDLKVSELRQQLRIRGLPVSGTKTALMQRLRPFQD,-0.165 ± 0.098
13,KPGPLPPNLDDLKVSELRQQLRIRGLPVSGTKTALMCRLRPFQD,-0.39 ± 0.14
14,KPGPLPPNLDDLKVSELRQQLRIRGLPVSGTKTALMPRLRPFQD,-0.966 ± 0.15
15,KPGPLPPNLDDLKVSELRQQLRIRGLPVSGTKTALMHRLRPFQD,-0.385 ± 0.15
16,KPGPLPPNLDDLKVSELRQQLRIRGLPVSGTKTALMNRLRPFQD,0.227 ± 0.14
17,KPGPLPPNLDDLKVSELRQQLRIRGLPVSGTKAALMDRLRPFQD,0.077 ± 0.064
18,KPGPLPPNLDDLKVSELRQQLRIRGLPVSGTKWALMDRLRPFQD,-0.467 ± 0.099
19,KPGPLPPNLDDLKVSELRQQLRIRGLPVSGTKVALMDRLRPFQD,0.016 ± 0.063
20,KPGPLPPNLDDLKVSELRQQLRIRGLPVSGTKFALMDRLRPFQD,-0.144 ± 0.16
21,KPGPLPPNLDDLKVSELRQQLRIRGLPVSGTKMALMDRLRPFQD,-0.402 ± 0.14
22,KPGPLPPNLDDLKVSELRQQLRIRGLPVSGTKLALMDRLRPFQD,-0.19 ± 0.079
23,KPGPLPPNLDDLKVSELRQQLRIRGLPVSGTKPALMDRLRPFQD,-0.17 ± 0.087
24,KPGPLPPNLDDLKVSELRQQLRIRGLPVSGTKCALMDRLRPFQD,-0.072 ± 0.1

row,Variant,abundance fitness
1,KPGPLPPNLDDLKVSELRQQLRIRGLPVSGTKNALMDRLRPFQD,-0.001 ± 0.08
2,KPGPLPPNLDDLKVSELRQQLRIRGLPVSGTKIALMDRLRPFQD,0.085 ± 0.14
3,KPGPLPPNLDDLKVSELRQQLRIRGLPVSGTKRALMDRLRPFQD,-0.055 ± 0.059
4,KPGPLPPNLDDLKVSELRQQLRIRGLPVSGTKEALMDRLRPFQD,0.292 ± 0.078
5,KPGPLPPNLDDLKVSELRQQLRIRGLPVSGTKSALMDRLRPFQD,-0.071 ± 0.095
6,KPGPLPPNLDDLKVSELRQQLRIRGLPVSGTKQALMDRLRPFQD,-0.385 ± 0.21
7,KPGPLPPNLDDLKVSELRQQLRIRGLPVSGTKKALMDRLRPFQD,0.016 ± 0.14
8,KPGPLPPNLDDLKVSELRQQLRIRGLPVSGTKDALMDRLRPFQD,0.138 ± 0.1
9,KPGPLPPNLDDLKVSELRQQLRIRGLPVSGTGTALMDRLRPFQD,-0.856 ± 0.092
10,KPGPLPPNLDDLKVSELRQQLRIRGLPVSGTTTALMDRLRPFQD,-0.349 ± 0.083
11,KPGPLPPNLDDLKVSELRQQLRIRGLPVSGTPTALMDRLRPFQD,-0.583 ± 0.071
12,KPGPLPPNLDDLKVSELRQQLRIRGLPVSGTSTALMDRLRPFQD,-0.905 ± 0.11
13,KPGPLPPNLDDLKVSELRQQLRIRGLPVSGTYTALMDRLRPFQD,-0.593 ± 0.31
14,KPGPLPPNLDDLKVSELRQQLRIRGLPVSGTRTALMDRLRPFQD,-0.012 ± 0.054
15,KPGPLPPNLDDLKVSELRQQLRIRGLPVSGTMTALMDRLRPFQD,-0.696 ± 0.16
16,KPGPLPPNLDDLKVSELRQQLRIRGLPVSGTWTALMDRLRPFQD,-0.759 ± 0.1
17,KPGPLPPNLDDLKVSELRQQLRIRGLPVSGTQTALMDRLRPFQD,-0.58 ± 0.11
18,KPGPLPPNLDDLKVSELRQQLRIRGLPVSGTITALMDRLRPFQD,-0.488 ± 0.26
19,KPGPLPPNLDDLKVSELRQQLRIRGLPVSGTVTALMDRLRPFQD,-0.357 ± 0.09
20,KPGPLPPNLDDLKVSELRQQLRIRGLPVSGTLTALMDRLRPFQD,-0.784 ± 0.074
